We go through four molecules from paper PMC7298706 (mBio, 2020).

What all share (assay): ELISA
What all share (conditions): both partners purified

One experiment concerns the target T1, LukD (Staphylococcus aureus, strain , UniProt O54082).
T1 construct: source: purified recombinant

In experiment [1] the target is T2, LukS, S subunit of the Panton-Valentine leukocidin (LukSF), recombinant holoprotein (Staphylococcus aureus, strain not …, UniProt O80066).
T2 construct: source: purified recombinant

Another experiment deals with T3, HlgB (Staphylococcus aureus, strain not told, UniProt P0A077).
T3 construct: source: purified recombinant

For experiment [2], the target named is T4, γ-hemolysin subunit HlgC, recombinant holoprotein (Staphylococcus aureus, strain not told, UniProt Q07227).
T4 construct: source: purified recombinant

The target of the next experiment is T5, LukE (Staphylococcus aureus, strain , UniProt O54081).
T5 construct: source: purified recombinant

The target of the next experiment is T6, HlgA (Staphylococcus aureus, strain not told, UniProt P0A074).
T6 construct: source: purified recombinant

B1: anti-HlgC1 MAb (antibody, V domains shown)
VH: QVQLLQSGAELVKPGASVQLSCKASGFTFTKHDINWVRQRPEQGLEWIGWIFPGDGNTKYNEKFKGKATLTTDKSSSTAYMQLNGLTSEDSAVYFCAKEIFYWGQGTSVTVSS
VL: DIVMTQSPSSLTVTAGEKVTMSCKSSQSLLNSENQRNYLTWYQQKPGQPPKLLISWASTRESGVPDRFTGSGSGTDFTLTISSVQAEDLAVYYCQNDFSYPLTFGAGTKLELR
notes: also called anti-HIgC1 MAb; source: murine B-cell hybridoma (BALB/c mice immunized with recombinant HlgC)
As for B1, the binding result was “no binding (tested: MAb at 2 μg/ml)” in the experiment with LukD; “binds” in experiment [1]; “no binding (tested: MAb at 2 μg/ml)” with HlgB; “binds” in experiment [2]; “no binding (tested: MAb at 2 μg/ml)” in the experiment with LukE; “no binding (tested: MAb at 2 μg/ml)” with HlgA.

B2: anti-HlgC4 MAb (antibody, V domains shown)
VH: QVQLLQSGAELVKPGASVQLSCKASGFTFTKYDINWVRQRPDQGLEWIGWIFPGDGNTKYNDKFKGKVILTTDKSSSTAYMQLTRLTSEDSAVYFCAREIFYWGQGTSVTVSS
VL: DIVMTQSPSSLTVTAGEKVTMSCKSSQSLLNSENQRNYLTWYQQKPGQPPKLLISWASTRESGVPDRFTGSGSGTDFTLTISSVQAEDLAVYYCQNDYSYPLTFGAGTKLELR
notes: also called anti-HIgC4 MAb; source: murine B-cell hybridoma (BALB/c mice immunized with recombinant HlgC)
As for B2, the binding result is listed as “no binding (tested: MAb at 2 μg/ml)” with LukD; “binds” in experiment [1]; “no binding (tested: MAb at 2 μg/ml)” in the experiment with HlgB; “binds” in experiment [2]; “no binding (tested: MAb at 2 μg/ml)” with LukE; “no binding (tested: MAb at 2 μg/ml)” in the experiment with HlgA.

B3: anti-HlgC3 MAb (antibody, V domains shown)
VH: QVQLLQSGAELVKPGASVQLSCKASGFTFTKYDINWVRQRPDQGLEWIGWIFPGDGNTKYNDKFKGKVILTTDKSSSTAYMQLSRLTSEDSAVYFCAREIFYWGQGTSVTVSA
VL: DIVMTQSPSSLTVTAGEKVTMSCKSSQSLFNSENQRNYLTWYQQKPRQPPKLLISWASTRESEVPDRFTGSGSGTDFTLTISSVQAEDLAVYYCQNDYSYPLTFGAGTKLELR
notes: also called anti-HIgC3 MAb; source: murine B-cell hybridoma (BALB/c mice immunized with recombinant HlgC)
Regarding B3, the binding result in the experiment with LukD is listed as “no binding (tested: MAb at 2 μg/ml)”; in experiment [1] it was “binds”; with HlgB, “no binding (tested: MAb at 2 μg/ml)”; in experiment [2], “binds”; in the experiment with LukE, “no binding (tested: MAb at 2 μg/ml)”; with HlgA, “no binding (tested: MAb at 2 μg/ml)”.

B4: anti-HlgC2 MAb (antibody, V domains shown)
VH: QVQLKESGPGLVAPSQSLSITCTVSGFSLTNFAVHWVRQPRGKGLEWLGSIWADGRTIYSALMSRLSISKDNSKSQVFLNMNSLQTDDTAMYYCATPFYFGYDGGYAMDHWGQGTSVTVSS
VL: DVLMTQTPLSLPVSLGDQASISCRSSQSIVHGSGNTYLEWYLQKPGQSPKLLIYKVSNRLSGVPDRISGSGSGTDFTLKINRVEAEDLGVYYCFQGSHVPYTFGGGTKLEMK
notes: also called anti-HIgC2 MAb; source: murine B-cell hybridoma (BALB/c mice immunized with recombinant HlgC)
On to B4, for which the binding result with LukD is on record as “no binding (tested: MAb at 2 μg/ml)”; in experiment [1] it was “binds”; with HlgB it was “no binding (tested: MAb at 2 μg/ml)”; in experiment [2], “binds”; in the experiment with LukE, “no binding (tested: MAb at 2 μg/ml)”; with HlgA, “no binding (tested: MAb at 2 μg/ml)”.
